In paper doi:10.1101/2025.08.19.670962, “Structural basis for binding of RILPL1 to TMEM55B reveals a lysosomal platform for adaptor assembly through a conserved TBM motif” (bioRxiv, 2025):

Assays:
[1] = test system: WT TMEM55B region 80-166; assay: In vitro pulldown of untagged TMEM55B with His-tagged bait peptides; assay type: binding; details: 10 μM bait, 10 μM prey, Ni2+-agarose, 20 mM Tris pH 8.0, 300 mM NaCl, 20 mM imidazole, 15 minutes, SDS-PAGE, Coomassie, qualitative
From the text: Figure 5: In vitro pulldowns of TMEM55B with TBM peptides. (A) Domain organization of TMEM55B interactors depicting the sequence context of the TBM. Regions that are α-helical have been drawn as cylinders; α/βfolds are shown as rectangles; and unstructured segments are zigzag lines. (B) Cartoon depiction of the in vitro pulldown strategy using His-tagged peptides. […] As a control, the R151E variant of TMEM55B was used, which abolishes the interactions with RILPL1 (bottom panel). […] Protein/peptide concentrations were 10μM (see Methods) and visualization was enabled by Coomassie Brilliant Blue G250.
Given that the TBMs reside in flexible regions of the adaptor proteins (Figure 5A), peptides should be able to mimic their interactions with TMEM55B. Peptides corresponding to the potential TBMs were synthesized with an N-terminal hexahistidine tag to enable in vitro pulldowns of TMEM55B (80-166; Figure 5B). Slightly extended peptides beyond the minimal TBMs were generated to preclude any structural or conformational restrictions on the interaction with TMEM55B. The peptide TBM from RILPL1 was used as a positive control, and the mutant R151E™ of TMEM55B provided a negative control. Peptides run on conventional SDS-PAGE gels are generally not visible in this assay. […]

[2] = molecular target: T1, TMEM55B (residues 80-160) (Homo sapiens, UniProt Q86T03); assay: Isothermal titration calorimetry of TBM peptides / OCRL PH domain with TMEM55B; assay type: binding; details: ITC; titration shown in the figure panel (Figure 1G / Figure 6B); value printed in the picture, ±% = fitting error
T1 construct: injected into a cell containing TMEM55B (residues 80-160); hexa-Histidine (N); made in house; host or cells: E. coli BL21(DE3)
T1 sequence (Q86T03 73-153): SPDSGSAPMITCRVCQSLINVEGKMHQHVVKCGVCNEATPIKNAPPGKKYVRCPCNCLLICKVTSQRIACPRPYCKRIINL
Procedure: Calorimetry experiments were performed using an ITC200 (Particular Sciences) as described in dx.doi.org/10.17504/protocols.io.j8nlkr7x6v5r/v1. Experiments were performed 3 or more times for each interacting pair. The TBM peptides were dialyzed together with TMEM55B80-160 (20 mM) Tris-HCl, 150mM NaCl, 5mM and 1mM DTT, pH 7.5). Protein concentrations were calculated based on their absorbance at 280nm using a ND-1000 NanoDrop spectrophotometer (Thermo Scientific), peptide concentration was determined by adding buffer to a known amount of lyophilized peptide factoring in their purity. The proteins were centrifuged at 13,100 x g for 10 minutes prior to the determination of protein concentration and ITC analyses. […]. We used Origin 7.0 with the ITC plugin for data processing, and assumed a single binding mode for data fitting.

B1: OCRL-PH domain: recombinant His-tagged PH domain, residues 1-129 of OCRL, ~16kDa (protein, UniProt Q01968 1-129, looked up, fragment)
chain: MEPPLPVGAQPLATVEGMEMKGPLREPCALTLAQRNGQYELIIQLHEKEQHVQDIIPINSHFRCVQEAEETLLIDIASNSGCKIRVQGDWIRERRFEIPDEEHCLKFLSAVLAAQKAQSQLLVPEQKDS
modifications: PH domain His tag
notes: recombinant His-tagged PH domain, residues 1-129 of OCRL, ~16kDa
pulldown of untagged WT TMEM55B (80-166) by His-tagged bait [1]: interacts robustly
pulldown of untagged WT TMEM55B (80-166) by His-tagged bait ([1]; listed as PH domain of OCRL1): successfully pulldown
Kd [2]: 900 nM
